This is an account of results in paper PMC11321312.

Experiment [1] deals with JGFN4 wild-type VHH (camelid (library from B cells of llamas and alpacas)). As to the kind of experiment: crystal structure; crystals grown from the isolated (preformed) dimeric species (~12 mg/ml) with 5-fold molar excess of fentanyl; sitting drop, ambient temperature.
Experiment [2] shares this target. As to the kind of experiment: crystal structure; crystals grown from the isolated monomeric species (~12 mg/ml) with 5-fold molar excess of fentanyl; sitting drop, ambient temperature.
Experiment [3] concerns the target JGFN4 N76D VHH (camelid (library from B cells of llamas and alpacas)). The experiment in a line: crystal structure; crystals grown from the isolated (preformed) dimeric species (~12 mg/ml) with 5-fold molar excess of fentanyl; sitting drop, ambient temperature.

A word on the stoichiometry N: it is a count of units in the complex or per binding partner.

Numbering of substitutions follows the chain as printed. Names and notes keep the numbering of the source.

B1: JGFN4 wild-type VHH (VHH)
VHH: QVQLVESGGGLAQAGGSLQLSCAASGSTSRVNAMGWYRQTPGKERELVAAIDRSGATVYSESVRGRFTISKNDAKNIVWLQMNNLTTEDTAVYYCRSGVLGSWGLGTQVTVSS
For B1, the stoichiometry N in experiment [1] and in experiment [2] was 2 throughout.

B2: JGFN4 N76D VHH (VHH)
VHH: B1 VHH with N76D
Take B2: the stoichiometry N in experiment [3] was found to be 2.
